Experimental data: US20180155451A1 (published 2018)

B1: GpH7-A5/GpH7-B3 variant E333_03V/GpL16-k0 (antibody, human IgG1, kappa)
heavy 1: not shown
heavy 2: not shown
light: DIVMTQSPLSLPVTPGEPASISCQASESLVHSNRNTYLHWYLQKPGQSPQLLIYKVSNRFSGVPDRFSGSGSGTDFTLKISRVEAEDVGVYYCSQNTHVPPTFGQGTKVEIERTVAAPSVFIFPPSDEQLKSGTASVVCLLNNFYPREAKVQWKVDNALQSGNSQESVTEQDSKDSTYSLSSTLTLSKADYEKHKVYACEVTHQGLSSPVTKSFNRGEC
notes: also called He Ab E333_03V
B2: GpH7-A5/GpH7-B3 variant S337_15Y/GpL16-k0 (antibody, human IgG1, kappa)
heavy 1: not shown
heavy 2: not shown
light: B1 light
notes: also called He Ab S337_15Y
B3: GpH7-A5/GpH7-B3 variant I336_06M/GpL16-k0 (antibody, human IgG1, kappa)
heavy 1: not shown
heavy 2: not shown
light: B1 light
notes: also called He Ab I336_06M
B4: GpH7-A5/GpH7-B3 variant I336_08L/GpL16-k0 (antibody, human IgG1, kappa)
heavy 1: not shown
heavy 2: not shown
light: B1 light
notes: also called He Ab I336_08L
B5: GpH7-A5/GpH7-B3 variant L234_04F/GpL16-k0 (antibody, human IgG1, kappa)
heavy 1: not shown
heavy 2: not shown
light: B1 light
notes: also called He Ab L234_04F
B6: GpH7-A5/GpH7-B3 variant P238_10E/GpL16-k0 (antibody, human IgG1, kappa)
heavy 1: not shown
heavy 2: not shown
light: B1 light
notes: also called He Ab P238_10E
B7: GpH7-A5/GpH7-B3 variant L234_20W/GpL16-k0 (antibody, human IgG1, kappa)
heavy 1: not shown
heavy 2: not shown
light: B1 light
notes: also called He Ab L234_20W
B8: GpH7-A5/GpH7-B3 variant K334_01G/GpL16-k0 (antibody, human IgG1, kappa)
heavy 1: not shown
heavy 2: not shown
light: B1 light
notes: also called He Ab K334_01G
B9: GpH7-A5/GpH7-B3 variant E333_13S/GpL16-k0 (antibody, human IgG1, kappa)
heavy 1: not shown
heavy 2: not shown
light: B1 light
notes: also called He Ab E333_13S
B10: GpH7-A5/GpH7-B3 variant S324_02A/GpL16-k0 (antibody, human IgG1, kappa)
heavy 1: not shown
heavy 2: not shown
light: B1 light
notes: also called He Ab S324_02A
B11: GpH7-A5/GpH7-B3 variant V266_08L/GpL16-k0 (antibody, human IgG1, kappa)
heavy 1: not shown
heavy 2: not shown
light: B1 light
notes: also called He Ab V266_08L
B12: GpH7-A5/GpH7-B3-03-20W/GpL16-k0 (antibody, human IgG1, kappa)
heavy 1: not shown
heavy 2: not shown
light: B1 light
notes: also called He Ab G236_20W; GpH7-A5/GpH7-B3 variant G236_20W/GpL16-k0
B13: GpH7-A5/GpH7-B3 variant S337_14T/GpL16-k0 (antibody, human IgG1, kappa)
heavy 1: not shown
heavy 2: not shown
light: B1 light
notes: also called He Ab S337_14T
B14: GpH7-A5/GpH7-B3 variant H268_02A/GpL16-k0 (antibody, human IgG1, kappa)
heavy 1: not shown
heavy 2: not shown
light: B1 light
notes: also called He Ab H268_02A
B15: GpH7-A5/GpH7-B3 variant S324_15Y/GpL16-k0 (antibody, human IgG1, kappa)
heavy 1: not shown
heavy 2: not shown
light: B1 light
notes: also called He Ab S324_15Y
B16: GpH7-A5/GpH7-B3 variant I336_18N/GpL16-k0 (antibody, human IgG1, kappa)
heavy 1: not shown
heavy 2: not shown
light: B1 light
notes: also called He Ab I336_18N
B17: GpH7-A5/GpH7-B3 variant Q295_14T/GpL16-k0 (antibody, human IgG1, kappa)
heavy 1: not shown
heavy 2: not shown
light: B1 light
notes: also called He Ab Q295_14T
B18: GpH7-A5/GpH7-B3 variant S337_04F/GpL16-k0 (antibody, human IgG1, kappa)
heavy 1: not shown
heavy 2: not shown
light: B1 light
notes: also called He Ab S337_04F
B19: GpH7-A5/GpH7-B3 variant T335_20W/GpL16-k0 (antibody, human IgG1, kappa)
heavy 1: not shown
heavy 2: not shown
light: B1 light
notes: also called He Ab T335_20W
B20: GpH7-A5/GpH7-B3 variant E333_09D/GpL16-k0 (antibody, human IgG1, kappa)
heavy 1: not shown
heavy 2: not shown
light: B1 light
notes: also called He Ab E333_09D
B21: GpH7-A5/GpH7-B3 variant T335_13S/GpL16-k0 (antibody, human IgG1, kappa)
heavy 1: not shown
heavy 2: not shown
light: B1 light
notes: also called He Ab T335_13S
B22: GpH7-A5/GpH7-B3 variant I332_01G/GpL16-k0 (antibody, human IgG1, kappa)
heavy 1: not shown
heavy 2: not shown
light: B1 light
notes: also called He Ab I332_01G
B23: GpH7-A5/GpH7-B3 variant K334_09D/GpL16-k0 (antibody, human IgG1, kappa)
heavy 1: not shown
heavy 2: not shown
light: B1 light
notes: also called He Ab K334_09D
B24: GpH7-A5/GpH7-B3 variant I336_03V/GpL16-k0 (antibody, human IgG1, kappa)
heavy 1: not shown
heavy 2: not shown
light: B1 light
notes: also called He Ab I336_03V
B25: GpH7-A5/GpH7-B17/GpL16-k0 (antibody, human IgG1, kappa)
heavy 1: not shown
heavy 2: not shown
light: B1 light
notes: also called He Ab L234_09D; GpH7-A5/GpH7-B3 variant L234_09D/GpL16-k0
B26: GpH7-A5/GpH7-B3 variant S337_10E/GpL16-k0 (antibody, human IgG1, kappa)
heavy 1: not shown
heavy 2: not shown
light: B1 light
notes: also called He Ab S337_10E

These binders were tested against T1, FcγRIIIa extracellular domain with C-terminal His tag (human, UniProt P08637 17-208) (assay: SPR relative binding; GpH7-A5/GpH7-B3/GpL16-k0 = 100).
T1 construct: extracellular domain; also called FcgRIIIa; 3a; not shown: His tag at the C terminus
Protocol: Analysis of interaction between objective antibody and the FcγR was carried out using Biacore T100 (GE Healthcare). HBS-EP+ (GE Healthcare) was used as the running buffer, and the measurement temperature was set to 25° C. Chips produced by immobilizing the antigen peptide by the amine coupling method to a Series S Sencor Chip CM5 (GE Healthcare), or alternatively, chips produced by allowing preliminarily biotinylated antigen peptides to interact with and immobilize onto a Series S Sensor Chip SA (certified) (GE Healthcare) were used. Antibodies of interest were captured onto an antigen peptide-immobilized chip, and allowed to interact to each FcγR diluted with running buffer. To regenerate and repeatedly use the chip, the antibodies captured on the chip were washed off by reacting 10 mM glycine-HCl, pH 1.5.
The FcγR-binding activity of each antibody was assessed primarily using as an indicator the FcγR-binding activity and dissociation constant for FcγR.

T1 sequence (P08637 17-208): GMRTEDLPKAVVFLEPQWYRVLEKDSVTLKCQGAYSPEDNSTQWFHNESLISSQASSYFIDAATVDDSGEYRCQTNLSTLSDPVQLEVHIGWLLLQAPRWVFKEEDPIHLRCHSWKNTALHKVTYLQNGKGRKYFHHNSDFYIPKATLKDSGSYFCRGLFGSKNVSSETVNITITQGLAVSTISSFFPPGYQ

He/Con_3a	FcγRIIIa BINDING ACTIVITY	Binder
103 % of control	–	B1
102 % of control	–	B2
109 % of control	–	B3
106 % of control	–	B4
118 % of control	–	B5
105 % of control	–	B6
107 % of control	–	B7
121 % of control	–	B8
103 % of control	–	B9
104 % of control	–	B10
118 % of control	–	B11
135 % of control	140 % of control	B12
101 % of control	–	B13
122 % of control	–	B14
101 % of control	–	B15
104 % of control	–	B16
115 % of control	–	B17
101 % of control	–	B18
102 % of control	–	B19
112 % of control	–	B20
105 % of control	–	B21
111 % of control	–	B22
160 % of control	–	B23
112 % of control	–	B24
117 % of control	–	B25
105 % of control	–	B26
